Source: publication PMC2248737

T1: ttRecR (Thermus thermophilus HB8, UniProt Q5SHY0 1-194)
T1 sequence: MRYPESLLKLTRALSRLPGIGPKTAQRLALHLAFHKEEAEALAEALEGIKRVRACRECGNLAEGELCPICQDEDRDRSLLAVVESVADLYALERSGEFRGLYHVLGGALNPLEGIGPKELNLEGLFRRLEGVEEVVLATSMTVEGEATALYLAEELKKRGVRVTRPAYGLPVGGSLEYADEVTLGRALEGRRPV

T2: ttSSB (Thermus thermophilus HB8, UniProt Q5SLP9 1-263)
T2 sequence: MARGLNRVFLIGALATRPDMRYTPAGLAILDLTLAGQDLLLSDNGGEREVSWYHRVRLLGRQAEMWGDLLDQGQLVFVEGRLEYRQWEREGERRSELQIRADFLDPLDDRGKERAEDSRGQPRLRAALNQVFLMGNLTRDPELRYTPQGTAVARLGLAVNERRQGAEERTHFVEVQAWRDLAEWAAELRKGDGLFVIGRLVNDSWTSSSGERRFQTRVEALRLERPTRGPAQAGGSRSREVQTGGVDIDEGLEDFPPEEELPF

B1: 66-mer ssDNA (ssDNA)
DNA: CTTATTAAAACGGCAACTCCTCCTCCGGCGGAAAGTCTTCCAAGCCTTCGTCAATGTCCACCCCAC
B2: 60-mer ssDNA (ssDNA)
DNA: GCCAAGCTTGCATGCCTGCAGGTCGACTCTAGAGGATCCCCGGGTACCGAGCTCGAATTC

Legend:
ttRecR = molecular target: T1, ttRecR; assay: EMSA
ttSSB = molecular target: T2, ttSSB; assay: pull-down

Binder	binding result (ttRecR)	binding result (ttSSB)
B1	no binding	–
B2	–	binds
